# In patent US20090048161A1:
# Where no end group is shown, it is not given here. [ ]: non-standard residue; d: D form.
# Molecular target: IL-1R on freshly isolated rat thymocytes (rat) (UniProt Q02955)
# Assay: radioligand binding on freshly isolated rat thymocytes: displacement of 6 nM I^125-API-101.10 by increasing non-radioactive API-101.10 (printed as 'affinity')
binder,measurement,value
"[dR][dY][dT][dV][dE][dL][dA] (also: 125I-labelled form used as tracer, site not given here) [API-101.10]",Kd,1000 nM
